# Measurements reported in paper PMC9352680, “A comprehensive thermodynamic model for RNA binding by the Saccharomyces cerevisiae Pumilio protein PUF4”.
# Residue numbers refer to the chain shown, from its start. Names may count otherwise.
# T1: PUF4 RNA-binding domain (Saccharomyces cerevisiae, UniProt P25339 537-888)
# T1 sequence: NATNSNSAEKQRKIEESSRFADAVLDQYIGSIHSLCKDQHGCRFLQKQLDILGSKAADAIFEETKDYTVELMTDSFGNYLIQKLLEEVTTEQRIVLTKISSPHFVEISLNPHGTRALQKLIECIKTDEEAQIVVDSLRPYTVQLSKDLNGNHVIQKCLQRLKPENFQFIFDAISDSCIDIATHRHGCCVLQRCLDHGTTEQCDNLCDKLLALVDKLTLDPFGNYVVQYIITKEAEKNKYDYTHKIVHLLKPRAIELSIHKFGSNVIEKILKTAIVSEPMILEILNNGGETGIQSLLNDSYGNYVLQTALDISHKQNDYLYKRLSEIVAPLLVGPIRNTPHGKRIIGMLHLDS
# B1: Ib_S2_P3E.1_K3.1_C3.1_H3.1_[A4G]_A3.1_F3.1_[A8C]_T3.1 (ssRNA)
# RNA: UUUGAUUAAUAUGAUAUCGUUCUUUCUUGUGUAUCUUCUUUCUCGAUAUCAUAUUAAUCUUU
# B2: Ib_S2_P3E.1_K3.1_C3.1_H3.1_[A4C]_A3.1_F3.1_[A8C]_T3.1 (ssRNA)
# RNA: B1 RNA with G31C
# Target: T1, PUF4 RNA-binding domain
# Test: Mg; RNA-MaP; 20 mM Na-HEPES pH 7.4, 30 mM KOAc, 0.75 mM MgCl2, 0.1% Tween-20, 5% glycerol, 0.1 mg/mL BSA, 2 mM DTT; 25 C; 0.0125-409.6 nM protein
# Conditions: tags: N-His6-TEV cleaved; C-SNAP kept, Cy3B-labelled; label: tethered on chip by stalled RNA polymerase
row,Binder,Kd
1,UCUCUUUGUAUUAUUCCUAUCUCUU (ssRNA) [Ie_S1_P5E.1_K5.1_C5.1_H5.1_A5.1_F5.1_[+9CCT]_T5.1],25.5 nM
2,UCUCUUUGUAUUAUCCCUUUAUCUCUU (ssRNA) [Ie_S1_P5E.1_K5.1_C5.1_H5.1_A5.1_F5.1_[+8CCCTT]_T5.1],23.1 nM
3,UCUCUUUGUAUUAUUCAUCUCUU (ssRNA) [Ie_S1_P5E.1_K5.1_C5.1_H5.1_A5.1_F5.1_[+9C]_T5.1],25.3 nM
4,UCUCUUUGUAUUAUUCUCUUAUCUCUU (ssRNA) [Ie_S1_P5E.1_K5.1_C5.1_H5.1_A5.1_F5.1_[+8TCTCT]_T5.1],16.8 nM
5,UCUCUUUGUAUUAUUCUCUAUCUCUU (ssRNA) [Ie_S1_P5E.1_K5.1_C5.1_H5.1_A5.1_F5.1_[+8TCTC]_T5.1],17.8 nM
6,UCUCUUUGUAUUAUUUCCAUCUCUU (ssRNA) [Ie_S1_P5E.1_K5.1_C5.1_H5.1_A5.1_F5.1_[+9TCC]_T5.1],20.4 nM
7,B1,15.7 nM
8,B2,2130 nM
9,UCUCUUUGUAUUACCCUUUUAUCUCUU (ssRNA) [Ie_S1_P5E.1_K5.1_C5.1_H5.1_A5.1_[+7CCCTT]_F5.1_T5.1],143 nM
10,UCUCUUUGUAUUAUUUCCUUAUCUCUU (ssRNA) [Ie_S1_P5E.1_K5.1_C5.1_H5.1_A5.1_F5.1_[+8TTCCT]_T5.1],17.1 nM
11,UCUCUUUGUAUUAUCUCUAUCUCUU (ssRNA) [Ie_S1_P5E.1_K5.1_C5.1_H5.1_A5.1_F5.1_[+8CTC]_T5.1],28.6 nM
12,UCUCUUUGUAUUAUCCUCUUAUCUCUU (ssRNA) [Ie_S1_P5E.1_K5.1_C5.1_H5.1_A5.1_F5.1_[+8CCTCT]_T5.1],23.1 nM
13,UCUCUUUGUAUUAUCUCUCUAUCUCUU (ssRNA) [Ie_S1_P5E.1_K5.1_C5.1_H5.1_A5.1_F5.1_[+8CTCTC]_T5.1],21.4 nM
14,UCUCUUUGUAUUACCCUUUAUCUCUU (ssRNA) [Ie_S1_P5E.1_K5.1_C5.1_H5.1_A5.1_[+7CCCT]_F5.1_T5.1],304 nM
15,UCUCUUUGUAUUAUCCUAUCUCUU (ssRNA) [Ie_S1_P5E.1_K5.1_C5.1_H5.1_A5.1_F5.1_[+8CC]_T5.1],26.3 nM
16,UCUCUUUGUAUUAUCCCUUAUCUCUU (ssRNA) [Ie_S1_P5E.1_K5.1_C5.1_H5.1_A5.1_F5.1_[+8CCCT]_T5.1],33.5 nM
17,UCUCUUUGUAUUAUCCCUAUCUCUU (ssRNA) [Ie_S1_P5E.1_K5.1_C5.1_H5.1_A5.1_F5.1_[+8CCC]_T5.1],33.8 nM
18,UCUCUUUGUAUUAUUCUAUCUCUU (ssRNA) [Ie_S1_P5E.1_K5.1_C5.1_H5.1_A5.1_F5.1_[+8TC]_T5.1],19.9 nM
19,UCUCUUUGUAUUAUCUCUUUAUCUCUU (ssRNA) [Ie_S1_P5E.1_K5.1_C5.1_H5.1_A5.1_[+7TCTCT]_F5.1_T5.1],40.6 nM
20,UCUCUUUGUAUUAUCCUCUAUCUCUU (ssRNA) [Ie_S1_P5E.1_K5.1_C5.1_H5.1_A5.1_F5.1_[+8CCTC]_T5.1],31.9 nM
21,UCUCUUUGUAUUAUUUCCUAUCUCUU (ssRNA) [Ie_S1_P5E.1_K5.1_C5.1_H5.1_A5.1_F5.1_[+8TTCC]_T5.1],15 nM
22,UCUCUUUGUAUUACCUCUUUAUCUCUU (ssRNA) [Ie_S1_P5E.1_K5.1_C5.1_H5.1_A5.1_[+7CCTCT]_F5.1_T5.1],412 nM
23,UCUCUUUGUAUUAUUCCUUAUCUCUU (ssRNA) [Ie_S1_P5E.1_K5.1_C5.1_H5.1_A5.1_[+7TTCC]_F5.1_T5.1],13.8 nM
24,UCUCUUUGUAUUAUUCCUUUAUCUCUU (ssRNA) [Ie_S1_P5E.1_K5.1_C5.1_H5.1_A5.1_[+7TTCCT]_F5.1_T5.1],16.7 nM
25,UCUCUUUGUAUUAUUUCUAUCUCUU (ssRNA) [Ie_S1_P5E.1_K5.1_C5.1_H5.1_A5.1_F5.1_[+8TTC]_T5.1],18.2 nM
26,UCUCUUUGUAUUAUUUCUCAUCUCUU (ssRNA) [Ie_S1_P5E.1_K5.1_C5.1_H5.1_A5.1_F5.1_[+9TCTC]_T5.1],16.3 nM
